Measurements reported in US7510708B2, “Disruption of the REG pathway” (Washington University, priority 2003, dated 2009).

What was measured:
[1] = system: colon cancer cell lines (e.g. HT29, SW480, T84); assay: Upregulation of mRNA of other Reg family members in colon cancer cell lines; format: cell-based; conditions: FIG. 33
Excerpt: One explanation for this finding could be that a single Reg protein can upregulate expression of other members of the Reg family.

[2] = system: colorectal adenocarcinoma cells; assay: Survival of colorectal adenocarcinoma cells in response to gamma radiation; format: cell-based; conditions: nanomolar concentrations, FIGS. 31 and 32
Excerpt: (§1) Stem cells and their immediate progeny are the only cells in the normal epithelium that are capable of continued proliferation. In this context, epithelial malignancies may reflect a form of disordered stem cell biology. FIGS. 27 and 28 show the effect of exogenous Reg proteins on the survival of intestinal stem cells following 13 Gy radiation. […] We therefore conducted experiments to see if exogenous Reg would promote the survival of colorectal adenocarcinoma cells in response to gamma radiation.

HT-29 cells = assay: Bcl-xl and Bcl-2 expression after recombinant Reg Iα treatment; format: cell-based; conditions: FIG. 29 and 30
Description: Additional colorectal cell lines were also examined to determine if this was a generalized effect on gastrointestinal cells. […] To determine if the increases in Bcl-2 mRNA also were associated with changes in Bcl-2 protein expression, Western blotting was performed on cell lysates taken at various times following Reg treatment.

intestinal stem cells = assay: Survival of intestinal stem cells following 13 Gy radiation; format: in vivo, mouse; conditions: pretreatment, FIGS. 27 and 28
Description: Gamma irradiation is a well-defined pro-apoptotic stimulus and is a commonly applied experimental approach to study intestinal epithelial cell death. […] At 6 hours marked apoptosis is seen in the crypt epithelium. By 24 hours, there is a loss of epithelial proliferation. Regenerating crypts, counted at 84 hours, are reflective of a single surviving stem cell.
as §1

Akt = assay: Activation of the Akt pathway by phosphorylation in cancer cell lines; format: cell-based; conditions: nanomolar concentrations; HCT116, HT29, N87 cells; FIGS. 19 and 20
Excerpt: One kinase responsible for protection against apoptosis in tumor cells may be Akt/protein kinase B. Akt, also referred to as Rac, regulates the balance between survival and apoptosis by several mechanisms. Akt may regulate the expression of anti-apoptotic proteins. Because of the effect of Reg on the regulation of Bcl-2 (and Bcl-xl, discussed later), we examined the effects of recombinant Reg IV and Reg Iα on the activation of the Akt pathway. […] Activated Akt has known pleiotropic effects (beyond effects on Bcl-2 family gene expression), reducing the amount of apoptosis occurring either at baseline or in response to a known proapoptotic stimulus.

HT29 = assay: Caspase activity in HT29 lysates following oxidative stress (hydrogen peroxide); format: cell-based; conditions: nanomolar concentrations; HT29 lysates after hydrogen peroxide; FIG. 21

B1: Reg III: Recombinant human Reg III (pancreatitis-associated protein) expressed by fermentation in Pichia pastoris (protein)
chain: EEPQRELPSARIRCPKGSKAYGSHCYALFLSPKSWTDADLACQKRPSGNLVSVLSGAEGSFVSSLVKSIGNSYSYVWIGLHDPTQGTEPNGEGWEWSSSDVMNYFAWERNPSTISSPGHCASLSRSTAFLRWKDYNCNVRLPYVCKFTD
mRNA coding for other members of the Reg gene family [1]: upregulation of mRNA coding for other members of the Reg gene family

B2: Reg Iα: Recombinant human Reg Iα protein expressed by fermentation in Pichia pastoris (protein)
chain: QEAQTELPQARISCPEGTNAYRSYCYYFNEDRETWVDADLYCQNMNSGNLVSVLTQAEGAFVASLIKESGTDDFNVWIGLHDPKKNRRWHWSSGSLVSYKSWGIGAPSSVNPGYCVSLTSSTGFQKWKDVPCEDKFSFVCKFKN
cell survival from gamma radiation [2]: improved cell survival
expression of Bcl-xl and Bcl-2 (HT-29 cells): increased expression of Bcl-xl and Bcl-2
stem cell survival (intestinal stem cells): significantly increased stem cell survival
activation by phosphorylation of Akt (Akt): rapid activation by phosphorylation of Akt
caspase activity / protection against peroxide-induced apoptosis (HT29): reduced caspase activity
mRNA coding for other members of the Reg gene family [1]: upregulation of mRNA coding for other members of the Reg gene family
